Reference: US20120149881A1 (Genentech, published 2012)
Changes are numbered by the printed parent chain.

B1: humanized anti-IgE/M1′ antibody 26A11.v1 (antibody, V domains shown)
VH: EVQLVESGGGLVQPGGSLRLSCAASGYTFTDYYMMWVRQAPGKGLEWVGDINPNNYDTSYNQKFKGRFTISADTSKNTAYLQMNSLRAEDTAVYYCASKAYWGQGTLVTVSS
VL: DIQMTQSPSSLSASVGDRVTITCRSSQDISNSLNWYQQKPGKAPKLLIYSTSRLHSGVPSRFSGSGSGTDFTLTISSLQPEDFATYYCQQGHTLPWTFGQGTKVEIKR
notes: direct CDR graft, produced as IgG in 293 cells
B2: humanized anti-IgE/M1′ antibody 47H4.v1 (antibody, V domains shown)
VH: EVQLVESGGGLVQPGGSLRLSCAASGFTFSDYGMAWVRQAPGKGLEWVAFISDLAYTIYYADTVTGRFTISRDNSKNTLYLQMNSLRAEDTAVYYCARDNWDAMDYWGQGTLVTVSS
VL: DIQMTQSPSSLSASVGDRVTITCRSSQSLVHNNGNTYLHWYQQKPGKAPKLLIYKVSNRFSGVPSRFSGSGSGTDFTLTISSLQPEDFATYYCSQNTLVPWTFGQGTKVEIKR
notes: direct CDR graft, produced as IgG
B3: humanized anti-IgE/M1′ antibody 47H4.v2 (antibody, V domains shown)
VH: B2 VH
VL: B2 VL with G34A
notes: produced as IgG
B4: humanized anti-IgE/M1′ antibody 26A11.v16 (antibody, V domains shown)
VH: B1 VH with M34I
VL: B1 VL with N31Q
notes: produced as IgG
B5: humanized anti-IgE/M1′ antibody 26A11.v4 (antibody, V domains shown)
VH: B1 VH with M34I
VL: B1 VL
notes: produced as IgG
B6: humanized anti-IgE/M1′ antibody 26A11.v14 (antibody, V domains shown)
VH: B1 VH
VL: B1 VL with N31Q
notes: produced as IgG
B7: humanized anti-IgE/M1′ antibody 26A11.v5 (antibody, V domains shown)
VH: B1 VH with M34I
VL: B1 VL with S32A
notes: produced as IgG
B8: humanized anti-IgE/M1′ antibody 26A11.v3 (antibody, V domains shown)
VH: B1 VH
VL: B1 VL with S32Y
notes: produced as IgG
B9: humanized anti-IgE/M1′ antibody 26A11.v15 (antibody, V domains shown)
VH: B1 VH with M34I
VL: B1 VL with N31S
notes: produced as IgG
B10: humanized anti-IgE/M1′ antibody 26A11.v13 (antibody, V domains shown)
VH: B1 VH
VL: B1 VL with N31S
notes: produced as IgG
B11: humanized anti-IgE/M1′ antibody 26A11.v2 (antibody, V domains shown)
VH: B1 VH
VL: B1 VL with S32A
notes: produced as IgG
B12: humanized anti-IgE/M1′ antibody 47H4.v3 (antibody, V domains shown)
VH: B2 VH with M34I, M104L
VL: B2 VL
notes: produced as IgG
B13: humanized anti-IgE/M1′ antibody 47H4.v4 (antibody, V domains shown)
VH: B2 VH with M34I, M104L
VL: B2 VL with G34A
notes: produced as IgG
B14: murine anti-IgE/M1′ antibody 45C1 (antibody, V domains shown)
VH: QIQLVQSGPELKKPGETVKISCKASGYTFTNYGMNWVKQAPGKGLKWMGWINTYTGEPTYVDDFKGRFAFSLETSASTAYLQINNLKNEDMATYFCARGIYYDNDDIYWGQGTILTVSS
VL: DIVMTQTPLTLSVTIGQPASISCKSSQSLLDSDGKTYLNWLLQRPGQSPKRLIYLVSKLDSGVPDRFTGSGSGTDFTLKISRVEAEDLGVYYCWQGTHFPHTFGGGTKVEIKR
notes: murine hybridoma antibody; also called 45C1.6.14
B15: murine anti-IgE/M1′ antibody 1C11 (antibody, V domains shown)
VH: QVQLQQSGAELVRPGASVTLSCKASGYTFTDFEMHWVKQTPVHGLEWIGAIAPETGTSAYNQKFRGKATLTADISSSTAYMDLRSLTSEDSAVYYCTIYYAAPWFAYWGQGTLVTVSS
VL: DIVMSQSPSSLAVSVGEKVTMSCKSSQSLLYSSNQKNYLAWYQQKPGQSPKLLIYWASTRESGVPDRFTGSGSVTDFPLTISSVKAEDLAVYYCQQYYSYPYTFGGGTKVEIKR
notes: murine hybridoma antibody; also called 1C11.10.20

Each binder was assayed against T1, human IgE CH3-CH4-M1′/Fc fusion protein (human) (assay: SPR Biacore 2000, IgG immobilized, M1′-Fc analyte).
T1 construct: also called M1′ (immobilized)
T1 sequence (chain, as listed by the source limits assumed): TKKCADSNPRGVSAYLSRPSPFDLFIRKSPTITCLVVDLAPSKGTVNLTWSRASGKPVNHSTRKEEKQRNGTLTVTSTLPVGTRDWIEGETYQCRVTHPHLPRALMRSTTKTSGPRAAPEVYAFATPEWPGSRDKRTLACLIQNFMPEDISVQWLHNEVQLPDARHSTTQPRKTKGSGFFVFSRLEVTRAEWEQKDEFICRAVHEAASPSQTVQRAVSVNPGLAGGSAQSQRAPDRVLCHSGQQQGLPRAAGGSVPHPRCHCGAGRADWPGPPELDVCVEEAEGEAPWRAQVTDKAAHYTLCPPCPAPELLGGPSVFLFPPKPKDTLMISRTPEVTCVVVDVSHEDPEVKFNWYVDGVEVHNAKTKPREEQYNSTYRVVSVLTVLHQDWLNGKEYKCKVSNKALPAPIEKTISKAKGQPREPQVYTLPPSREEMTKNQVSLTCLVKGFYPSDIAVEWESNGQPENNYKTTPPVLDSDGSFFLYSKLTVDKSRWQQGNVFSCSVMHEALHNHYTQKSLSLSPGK
B1 showed a Kd of 9 nM.
B2 gave a Kd of 3.1 nM.
For B3, the Kd was 2.8 nM.

These binders were tested against T2, human IgE with the M1′ sequence (long form of membrane IgE) expressed on transduced BJAB or Daudi cells (human, UniProt P01854 116-546) (assay: competitive ECL binding on BJAB-IgE/M1′ cells vs biotinylated 26A11 or 47H4, 2nd IC50 column).
T2 construct: Full-length heavy and light chains of the U266 IgE B cell receptor, retrovirally expressed; also called IgE/M1′; IgE-M1′
T2 sequence (P01854 116-546 I515L limits assumed): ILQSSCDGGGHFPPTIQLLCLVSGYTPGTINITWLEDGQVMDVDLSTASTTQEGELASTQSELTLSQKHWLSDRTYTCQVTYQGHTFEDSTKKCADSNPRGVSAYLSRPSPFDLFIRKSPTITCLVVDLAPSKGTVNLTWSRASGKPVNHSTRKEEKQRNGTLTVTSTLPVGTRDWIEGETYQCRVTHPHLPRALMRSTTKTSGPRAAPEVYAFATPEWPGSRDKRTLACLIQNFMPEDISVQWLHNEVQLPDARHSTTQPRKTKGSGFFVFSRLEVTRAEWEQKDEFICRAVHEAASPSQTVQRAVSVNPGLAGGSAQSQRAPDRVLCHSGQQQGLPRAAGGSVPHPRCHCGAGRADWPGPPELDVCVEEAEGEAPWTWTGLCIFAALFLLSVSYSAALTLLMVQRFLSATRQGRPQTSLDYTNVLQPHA
With B1 the IC50 was 19 nM.
With B4 the IC50 was 27 nM.
B5 gave an IC50 of 29 nM.
B6 was tested, and the IC50 was 19 nM.
Work on B7 yielded an IC50 of 35 nM.
For B8, the IC50 was 22 nM.
B9 showed an IC50 of 32 nM.
For B10, the IC50 was 19 nM.
For B2, the IC50 was 18 nM.

What follows are binders tested against T2, human IgE with the M1′ sequence (long …) (assay: competitive ECL binding on BJAB-IgE/M1′ cells vs biotinylated 26A11 or 47H4, 1st IC50 column).
With B1 the IC50 was 15 nM.
With B5 the IC50 was 20 nM.
B11 showed an IC50 of 18 nM.
With B7 the IC50 was 25 nM.
For B8, the IC50 was 10 nM.
Binder B2 has an IC50 of 12 nM.
B12 gave an IC50 of roughly 7600 nM.
With B3 the IC50 was 38 nM.

The binders below were run against T2, human IgE with the M1′ sequence (long …) (assay: Scatchard analysis on cells expressing human IgE/M1′).
Protocol: The BJAB or Daudi cells expressing various forms of IgE with or without M1′ (Human, Rhesus, Cyno) were prepared for binding in cold Binding buffer composed of base media, with 10 mM HEPES pH 7.4, and 2% FBS as well as 40 ug/ml human IgG. Cells are diluted to concentration of 1.7×10⁶ cells/ml, and kept on ice until they are added to the assay. The proteins/antibodies are iodinated with the Iodogen method. Various concentrations of cold protein are prepared in triplicate, using a 1:2 dilution starting with the saturation concentration and ending at a concentration of zero, with a total of 14 concentrations. Hot protein of a single concentration is added to all dilutions compete with the cold protein. Lastly the cells are added to the hot and cold protein mixture, 250,000 cells per sample were used. Assay is kept at 4° C. for 4 hours, shaking. Each sample is then collected and filtered on membrane, washed at least 3 times with binding buffer, allowed to dry and then counted for 1 minute using Perkin Elmer Wizard 1470 Auto Gamma Counter.
In the case of B1, the Kd is reported as 1.06 nM.
B6 showed a Kd of 1.5 nM.
With B2 the Kd was 0.37 nM.
Work on B3 yielded a Kd of 0.54 nM.

What follows are binders tested against T1, human IgE CH3-CH4-M1′/Fc fusion protein (assay: SPR Biacore 2000, M1′-Fc immobilized).
With B1 the Kd was 1.7 nM.
B4 was tested, and the Kd was 8.8 nM.
Work on B6 yielded a Kd of 3.9 nM.
B8 showed a Kd of 2.8 nM.
Binder B9 has a Kd of 8.4 nM.
For B10, the Kd was 4 nM.

Each binder was assayed against T1, human IgE CH3-CH4-M1′/Fc fusion protein (assay: SPR Biacore A100, M1′ immobilized).
In the case of B1, the Kd is reported as 0.2 nM.
Work on B5 yielded a Kd of 0.9 nM.
Work on B11 yielded a Kd of 0.3 nM.
B8 gave a Kd of less than 0.05 nM.
B2 showed a Kd of 7.8 nM.
B13 gave a Kd of 56 nM.
B12 gave a Kd of 69 nM.
B3 showed a Kd of 7.4 nM.

The binders below were run against T2, human IgE with the M1′ sequence (long …) (assay: number printed in the titration panel; FIG. 3M calls these numbers 'Scatchard Results' (BJAB-Long cells)).
Protocol: In addition to relative affinity determinations by antibody titration and FACs detection, we also determined affinities of selected anti-MP antibodies to BJAB cell lines expressing IgE long form using Scatchard analysis. BJAB-Long cells were prepared for binding in cold Binding buffer composed of base media, with 10 mM HEPES pH 7.4, and 2% FBS as well as 40 μg/ml human IgG. Cells were diluted to a concentration of 1.7×10⁶ cells/ml, and kept on ice until added to the assay. The antibodies were iodinated with Iodogen method. Various concentrations of unlabelled antibody were prepared in triplicate, using a 1:2 dilution starting with the saturation concentration and ending at a concentration of zero, with a total of 14 concentrations. Iodinated antibody of a single concentration was added to all dilutions of the competitor unlabelled antibody. Lastly 250,000 BJAB-Long cells were added to each mixture of iodinated and unlabelled antibody. The samples were incubated at 4° C. for 4 hours, shaking. Each sample was then collected and filtered on a membrane, washed at least 3 times with binding buffer, allowed to dry and then measured for 1 minute using a Perkin Elmer Wizard 1470 Auto Gamma Counter.
In the case of B14, the Kd is reported as 16.8 nM.
In the case of B15, the Kd is reported as 2.7 nM.
